Assay results reported in PMC6591243, “Characterization of metal binding of bifunctional kinase/phosphatase AceK and implication in activity modulation” (Scientific Reports, 2019).
Positions count from the first letter of the chain named. Names and notes keep the numbering of the source.

T1: phospho-IDH (isocitrate dehydrogenase phosphorylated by AceK) (E. coli) (UniProt P08200)
T1 sequence (chain, phosphorylated by AceK (residue not printed)): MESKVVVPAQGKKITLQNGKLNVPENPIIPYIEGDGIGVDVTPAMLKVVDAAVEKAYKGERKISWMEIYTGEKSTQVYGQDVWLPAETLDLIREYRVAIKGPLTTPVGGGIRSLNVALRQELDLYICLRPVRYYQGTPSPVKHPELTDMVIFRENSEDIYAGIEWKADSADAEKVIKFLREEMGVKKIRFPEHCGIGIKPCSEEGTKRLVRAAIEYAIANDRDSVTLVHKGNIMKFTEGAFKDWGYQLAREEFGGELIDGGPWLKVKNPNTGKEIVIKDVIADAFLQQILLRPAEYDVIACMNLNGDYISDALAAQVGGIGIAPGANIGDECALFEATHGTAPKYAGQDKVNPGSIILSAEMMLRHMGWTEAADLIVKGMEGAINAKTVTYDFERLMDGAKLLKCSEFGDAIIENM

B1: isocitrate dehydrogenase kinase/phosphatase (AceK) wild-type (enzyme)
chain: MPRGLELLIAQTILQGFDAQYGRFLEVTSGAQQRFEQADWHAVQQAMKNRIHLYDHHVGLVVEQLRCITNGQSTDAAFLLRVKEHYTRLLPDYPRFEIAESFFNSVYCRLFDHRSLTPERLFIFSSQPERRFRTIPRPLAKDFHPDHGWESLLMRVISDLPLRLRWQNKSRDIHYIIRHLTETLGTDNLAESHLQVANELFYRNKAAWLVGKLITPSGTLPFLLPIHQTDDGELFIDTCLTTTAEASIVFGFARSYFMVYAPLPAALVEWLREILPGKTTAELYMAIGCQKHAKTESYREYLVYLQGCNEQFIEAPGIRGMVMLVFTLPGFDRVFKVIKDRFAPQKEMSAAHVRACYQLVKEHDRVGRMADTQEFENFVLEKRHISPALMELLLQEAAEKITDLGEQIVIRHLYIERRMVPLNIWLEQVEGQQLRDAIEEYGNAIRQLAAANIFPGDMLFKNFGVTRHGRVVFYDYDEICYMTEVNFRDIPPPRYPEDELASEPWYSVSPGDVFPEEFRHWLCADPRIGPLFEEMHADLFRADYWRALQNRIREGHVEDVYAYRRRQRFSVRYGEMLF
B2: AceK D475A (enzyme)
chain: B1 chain with D475A
B3: AceK D477K (enzyme)
chain: B1 chain with D477K
B4: AceK D477A (enzyme)
chain: B1 chain with D477A

Assays:
[1] = biological target: T2, AceK (isocitrate dehydrogenase kinase/phosphatase) (Escherichia coli, UniProt P11071); test: X-ray crystallography; assay type: binding; details: allosteric site at interface of kinase and regulatory domains; complex with ADP and Mn2+; AMP not listed among crystallisation additions
T2 construct: hexahistidine-tagged, expressed in E. coli BL21 (DE3), Ni-NTA and Superdex200; 66 kDa

[2] = biological target: T1, phospho-IDH (isocitrate dehydrogenase phosphorylated by AceK) (E. coli)

Molecule | X-ray crystallography [1] | Km for phospho-IDH, phosphatase kinetics (20 mM Hepes pH 7.0, 2.0 mM Mn2+, 2.0 mM ADP, 37 °C) [2]
Nc1ncnc2c1ncn2[C@@H]1O[C@H](COP(=O)(O)O)[C@@H](O)[C@H]1O [AMP] | a buried ADP molecule and a bound AMP at the interface of the two domains | 
B1 |  | 0.376 μM
B2 |  | 1.95 μM
B3 |  | 12.2 μM
B4 |  | 16.1 μM
